This note sets out measurements from publication PMC5817926.

In experiment [1] the target is ubiquitin polyprotein composed of nine identical repeats (Ubi)9 (UniProt P0CG48). In words: single-molecule force-clamp spectroscopy (AFM); collapsed (molten globule-like) states: polyprotein tethered between a gold surface and the cantilever tip, unfolded, force quenched for tq 0.5 to 15 s with 5 uM chaperone (DnaK with ADP); refolding yield read in a test pulse; constants from a multiparametric fit of a kinetic model; PBS + 5 mM MgCl2, pH 7.4, 22 C.

Experiment [2] concerns the target (I27)8 polyprotein of the I27th Ig domain of titin. Described as above.
Experiment [3] shares this target. In words: single-molecule force-clamp spectroscopy (AFM) with a kinetic model fit; polyprotein tethered between gold and cantilever, 5 uM chaperone in solution (DnaK with ADP); PBS + 5 mM MgCl2 pH 7.4, 22 C; binding to the collapsed state during the quench at 0 pN (tq 0.5-15 s); constants from a multiparametric fit of the kinetic model to the refolding kinetics.
The target in experiment [4] is ubiquitin polyprotein composed of nine identical repeats (Ubi)9 (UniProt P0CG48).
For experiment [5], the target named is (I27)8 polyprotein of the I27th Ig domain of titin.
The target in experiment [6] is ubiquitin polyprotein composed of nine identical repeats (Ubi)9 (UniProt P0CG48). Description: single-molecule force-clamp spectroscopy (AFM); extended state: polyprotein tethered between a gold surface and the cantilever tip, unfolded and held extended at high force (120 pN; 170 pN for the constants of the extended conformation) for text 1 to 30 s with 5 uM chaperone (DnaK with ADP); refolding yield read in a test pulse after tq = 5 s; constants from a multiparametric fit of a kinetic model; PBS + 5 mM MgCl2, pH 7.4, 22 C.

The target in experiment [7] is ubiquitin polyprotein composed of nine identical repeats (Ubi)9. Description: single-molecule force-clamp spectroscopy (AFM) with a kinetic model fit; (Ubi)9 tethered between gold and cantilever, 5 uM DnaJ in solution; PBS + 5 mM MgCl2 pH 7.4, 22 C; binding to ubiquitin held extended at 170 pN for text 0-30 s, quench 5 s; kon and koff of the extended state as free parameters of the kinetic model.

For experiment [8] the target is unchanged. In words: single-molecule force-clamp spectroscopy (AFM) with a kinetic model fit; (Ubi)9 tethered between gold and cantilever, 5 uM chaperone in solution (DnaK with ADP); PBS + 5 mM MgCl2 pH 7.4, 22 C; binding to ubiquitin mechanically unfolded and held extended at 120 pN; constants from a multiparametric fit of ordinary differential equations to the refolding yields.

Experiment [9] deals with ubiquitin polyprotein composed of nine identical repeats (Ubi)9 (UniProt P0CG48). This is another data set of the same source.
The target is the same in experiment [10]. The source holds these as a separate data set.
Experiment [11] shares this target. This is another data set of the same source.

Sequence of DnaK (Hsp70) (P0A6Y8 whole entry): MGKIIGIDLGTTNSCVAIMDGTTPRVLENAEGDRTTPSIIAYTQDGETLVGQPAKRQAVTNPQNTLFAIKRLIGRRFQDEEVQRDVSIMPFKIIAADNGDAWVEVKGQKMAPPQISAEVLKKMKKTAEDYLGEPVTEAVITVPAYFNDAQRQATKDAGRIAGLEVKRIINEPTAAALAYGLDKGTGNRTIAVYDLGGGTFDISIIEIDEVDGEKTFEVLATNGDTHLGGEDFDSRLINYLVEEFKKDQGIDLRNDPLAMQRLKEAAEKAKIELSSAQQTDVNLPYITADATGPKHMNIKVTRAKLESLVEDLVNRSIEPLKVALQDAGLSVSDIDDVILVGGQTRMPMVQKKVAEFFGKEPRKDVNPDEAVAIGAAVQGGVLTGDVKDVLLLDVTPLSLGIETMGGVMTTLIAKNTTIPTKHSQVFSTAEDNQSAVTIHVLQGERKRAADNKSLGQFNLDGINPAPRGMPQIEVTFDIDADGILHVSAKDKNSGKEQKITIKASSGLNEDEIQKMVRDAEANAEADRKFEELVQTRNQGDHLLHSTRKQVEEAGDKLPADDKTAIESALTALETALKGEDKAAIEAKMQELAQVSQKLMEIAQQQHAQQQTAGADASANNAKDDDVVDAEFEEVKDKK
Sequence of DnaJ (Hsp40) (P08622 whole entry): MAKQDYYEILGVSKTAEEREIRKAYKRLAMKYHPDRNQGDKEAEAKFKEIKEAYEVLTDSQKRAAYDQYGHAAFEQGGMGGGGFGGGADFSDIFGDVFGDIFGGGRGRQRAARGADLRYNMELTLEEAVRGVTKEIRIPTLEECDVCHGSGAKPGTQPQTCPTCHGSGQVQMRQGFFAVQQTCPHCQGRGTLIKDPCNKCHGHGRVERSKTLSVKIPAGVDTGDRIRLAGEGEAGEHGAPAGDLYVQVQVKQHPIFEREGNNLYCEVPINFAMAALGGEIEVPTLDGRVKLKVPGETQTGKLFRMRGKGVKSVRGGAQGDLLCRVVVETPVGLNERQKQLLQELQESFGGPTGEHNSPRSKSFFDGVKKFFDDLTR

Broadly, the Kd is the free concentration of one partner at which half of the binding sites on the other are occupied at equilibrium, for simple one-to-one binding. For orientation: koff means the first-order rate constant of dissociation. On to “DnaK (Hsp70) (from UniProt P0A6Y8 1-638) (natural protein)”, for which the Kd was determined as 140 nM in experiment [1] and 270 nM in [2]. The koff in experiment [3] came out at 0.029 s⁻¹. The plateau of the refolding yield of ubiquitin in force-quench trajectories (tq 0.5 to 15 s) with 5 μM DnaK(ADP) in experiment [4] is 30%. In [5], the refolding yield of I27 with DnaK(ADP) came out at 50%.

As a reminder, the kon is a measure of how fast the partners come together. For the substance “DnaJ (Hsp40) (from UniProt P08622 1-376) (natural protein)”, the Kd worked out at 940 nM in experiment [6] and 330 nM in experiment [2]. The kon amounted to 250000 M⁻¹ s⁻¹ in [2], 48700 M⁻¹ s⁻¹ in [7] and 29900 M⁻¹ s⁻¹ in experiment [8]. The koff in [3] stood at 0.0472 s⁻¹; in [8] it was 0.0492 s⁻¹. Further, the plateau of the refolding yield of ubiquitin in force-quench trajectories (tq 0.5 to 15 s) with 5 μM DnaJ (~75% without DnaJ) in experiment [9] came to 30%. This substance also showed a refolding percentage of ubiquitin after 15 s stretched at 50 to 300 pN with DnaJ, tq = 5 s (10% at 150 to 170 pN, ~30% at 300 pN, ~50% at 50 pN) in experiment [10] of 50%. For the same substance, the rate of the exponential decrease of the refolding efficiency of ubiquitin with the time held extended (text 1 to 30 s, tq = 5 s) with 5 μM DnaJ in [11] came out at 0.27 s⁻¹.
